{"source": "paper PMC10439124", "molecular_target": "Pfs230D1-E2p fusion protein (Pfs230D1-linker-E2p), 60-copy nanoparticle (Plasmodium falciparum (3D7) | Geobacillus stearothermophilus) (UniProt P68874)", "assay": "SEC-MALS + other: SEC-SAXS; SIBYLS beamline 12.3.1; the sample was injected into a size-exclusion column and a post-column splitter directed the eluate to the MALS and SAXS systems; molecular weight from Astra 6 (MALS) and PRIMUS/ATSAS (SAXS)", "data": [{"substance": "Pfs230D1-E2p fusion protein (Pfs230D1-linker-E2p), 60-copy nanoparticle (from UniProt P68874 542-736)", "values": [{"measurement": "stoichiometry N", "result": 60}]}]}
